# Measurements from PMC10681739, “High-throughput data and modeling reveal insights into the mechanisms of cooperative DNA-binding by transcription factor proteins”.
# B1: Table S3 C row 70 (dsDNA)
# DNA 1: GGCCGCGCCCAGACCCGGAAGCGGGGCCGTCACGTG
# DNA 2: CACGTGACGGCCCCGCTTCCGGGTCTGGGCGCGGCC
# B2: Table S3 C row 200 (dsDNA)
# DNA 1: GCCCCTCACAGCCTGCTTCCGGGAGCCGGGCAGGCC
# DNA 2: GGCCTGCCCGGCTCCCGGAAGCAGGCTGTGAGGGGC
# B3: Table S3 C row 106 (dsDNA)
# DNA 1: ACCAGGCGACGATGCCGGAACGCGCAAGTACGCGAG
# DNA 2: CTCGCGTACTTGCGCGTTCCGGCATCGTCGCCTGGT
# B4: Table S3 B row 116 (dsDNA)
# DNA 1: GTAGTTCCTTGTCTTTCCTTCTGCCGCCGCAGGCCT
# DNA 2: AGGCCTGCGGCGGCAGAAGGAAAGACAAGGAACTAC
# B5: Table S3 C row 170 (dsDNA)
# DNA 1: ACCGGCGCGCACACGCTTCCGTGCTACGAGGCACTT
# DNA 2: AAGTGCCTCGTAGCACGGAAGCGTGTGCGCGCCGGT
# B6: Table S3 C row 166 (dsDNA)
# DNA 1: ACCCCGGGTCGGAGTGTTCCGGCCCGGCCAGCCCCG
# DNA 2: CGGGGCTGGCCGGGCCGGAACACTCCGACCCGGGGT
# B7: Table S3 C row 176 (dsDNA)
# DNA 1: GCCGCCATGGGGCGCTATCCGGCCCCAGCCGGGACC
# DNA 2: GGTCCCGGCTGGGGCCGGATAGCGCCCCATGGCGGC
# B8: Table S3 B row 3059 (dsDNA)
# DNA 1: AGGCTGTGGTTATCTGCAAACAGCCCCCGTCCATCC
# DNA 2: GGATGGACGGGGGCTGTTTGCAGATAACCACAGCCT
# B9: Table S3 B row 2568 (dsDNA)
# DNA 1: GTCGCCTGCGGTGACTCAGCTCTTACGGTCACCGCC
# DNA 2: GGCGGTGACCGTAAGAGCTGAGTCACCGCAGGCGAC
# B10: Table S3 C row 79 (dsDNA)
# DNA 1: TTGCAAGTACACCTGCATCCGGTGGCATGTTTTAGT
# DNA 2: ACTAAAACATGCCACCGGATGCAGGTGTACTTGCAA
# B11: Table S3 B row 736 (dsDNA)
# DNA 1: CTCTGAACCGCATGATCTCTAAGACCACTTGCTGTT
# DNA 2: AACAGCAAGTGGTCTTAGAGATCATGCGGTTCAGAG
# B12: Table S3 C row 29 (dsDNA)
# DNA 1: CCGGTCTCGCGATAGCGGAAAGGGCTGTACCATCTG
# DNA 2: CAGATGGTACAGCCCTTTCCGCTATCGCGAGACCGG
# B13: Table S3 C row 122 (dsDNA)
# DNA 1: ACCCTGAAGCCTCGCCGGAACTCGCGTCTGGGGCCA
# DNA 2: TGGCCCCAGACGCGAGTTCCGGCGAGGCTTCAGGGT
# B14: Table S3 B row 1286 (dsDNA)
# DNA 1: CCCAATTGCCTTTGCTCTGCTGTCTGCCAACCGCAA
# DNA 2: TTGCGGTTGGCAGACAGCAGAGCAAAGGCAATTGGG
# B15: Table S3 B row 1567 (dsDNA)
# DNA 1: ACGGAGCTGTGGTTTAACGTTTCAGGTTCGTGGCTA
# DNA 2: TAGCCACGAACCTGAAACGTTAAACCACAGCTCCGT
# B16: Table S3 B row 1244 (dsDNA)
# DNA 1: GGAACCCGCAGAAGCCCCGCCTCCCGTAAGCGGAGC
# DNA 2: GCTCCGCTTACGGGAGGCGGGGCTTCTGCGGGTTCC
# B17: Table S3 C row 138 (dsDNA)
# DNA 1: GGGGCCTGTTGTAGTTTTCCTGCATTCAAAGTACCC
# DNA 2: GGGTACTTTGAATGCAGGAAAACTACAACAGGCCCC
# B18: Table S3 C row 20 (dsDNA)
# DNA 1: TACCTCTGTAACAGGTTTCCTGTCCCTGCCCAGCTT
# DNA 2: AAGCTGGGCAGGGACAGGAAACCTGTTACAGAGGTA
# B19: Table S3 C row 8 (dsDNA)
# DNA 1: GCCAGGCCGGCGGCGCGGAAGGTCTCCTGTGCCTGC
# DNA 2: GCAGGCACAGGAGACCTTCCGCGCCGCCGGCCTGGC
# B20: Table S3 C row 173 (dsDNA)
# DNA 1: CGCTATCGGGGCAGCAGGAAGTCGCCATCTTGAATC
# DNA 2: GATTCAAGATGGCGACTTCCTGCTGCCCCGATAGCG
# B21: Table S3 C row 27 (dsDNA)
# DNA 1: TGCGCCGCGCCCCGGGTTCCGGAATGCACTCTGAAC
# DNA 2: GTTCAGAGTGCATTCCGGAACCCGGGGCGCGGCGCA
# B22: Table S3 C row 101 (dsDNA)
# DNA 1: AGTCAGAAGTTTCAGCGGAAATTGAAGCGCGGCCCT
# DNA 2: AGGGCCGCGCTTCAATTTCCGCTGAAACTTCTGACT
# B23: Table S3 C row 81 (dsDNA)
# DNA 1: GGCCCATTGTCCGCGCTTCCGTTCAGGCTCCGCCTC
# DNA 2: GAGGCGGAGCCTGAACGGAAGCGCGGACAATGGGCC
# B24: Table S3 C row 26 (dsDNA)
# DNA 1: GACACTGGAGGGAGCCGGAAGTACCTCGGAGTTTTA
# DNA 2: TAAAACTCCGAGGTACTTCCGGCTCCCTCCAGTGTC
# B25: Table S3 B row 594 (dsDNA)
# DNA 1: CCCCTCCCCACACCACAACAAACCTGATCCTTGCGC
# DNA 2: GCGCAAGGATCAGGTTTGTTGTGGTGTGGGGAGGGG
# B26: Table S3 C row 11 (dsDNA)
# DNA 1: AAAAGCATCCCCAGACTTCCTGTTGGGAGCTCTCTG
# DNA 2: CAGAGAGCTCCCAACAGGAAGTCTGGGGATGCTTTT
# B27: Table S3 C row 172 (dsDNA)
# DNA 1: TGGCTGAGACTGAGACGGAAGGATCCTTGCGCCCAG
# DNA 2: CTGGGCGCAAGGATCCTTCCGTCTCAGTCTCAGCCA
# B28: Table S3 C row 62 (dsDNA)
# DNA 1: GGGAGAAGCGGGAGGCGGAACGCCCGAGGGCGCCCT
# DNA 2: AGGGCGCCCTCGGGCGTTCCGCCTCCCGCTTCTCCC
# B29: Table S3 B row 232 (dsDNA)
# DNA 1: TGTTGTGTGGTTTCAGAGATACGTCCTTGGGTTGCC
# DNA 2: GGCAACCCAAGGACGTATCTCTGAAACCACACAACA
# B30: Table S3 C row 180 (dsDNA)
# DNA 1: CTGTGCAGCGTCCTCCTTCCGGGTGCAGGCGGGCCT
# DNA 2: AGGCCCGCCTGCACCCGGAAGGAGGACGCTGCACAG
# B31: Table S3 C row 100 (dsDNA)
# DNA 1: TGGCTAGGGGCAGGGCTTCCGGCCTCGAACTTTAAC
# DNA 2: GTTAAAGTTCGAGGCCGGAAGCCCTGCCCCTAGCCA
# B32: Table S3 B row 1078 (dsDNA)
# DNA 1: ATTTGTCACCAAACCACAGAGAGGACATGATTGTAA
# DNA 2: TTACAATCATGTCCTCTCTGTGGTTTGGTGACAAAT
# B33: Table S3 C row 194 (dsDNA)
# DNA 1: TGGGCAAGCCTTGGGCTTCCGGAGCCAAAAGGCCCA
# DNA 2: TGGGCCTTTTGGCTCCGGAAGCCCAAGGCTTGCCCA
# B34: Table S3 C row 74 (dsDNA)
# DNA 1: GTCATCTCGTTGACACTTCCGCTGACCCGTGCAGTT
# DNA 2: AACTGCACGGGTCAGCGGAAGTGTCAACGAGATGAC
# B35: Table S3 C row 128 (dsDNA)
# DNA 1: GGTCCCGCCCCTGGCCGGAAGTTCTGGCGGCGGAGC
# DNA 2: GCTCCGCCGCCAGAACTTCCGGCCAGGGGCGGGACC
# B36: Table S3 B row 3020 (dsDNA)
# DNA 1: TTTTATCGTCCGCGAGCCCTCATCCCACAACTCTTC
# DNA 2: GAAGAGTTGTGGGATGAGGGCTCGCGGACGATAAAA
# B37: Table S3 C row 188 (dsDNA)
# DNA 1: GCAAGCGGGCCTGGGCGGATGTCTCGGGCGCGTCGG
# DNA 2: CCGACGCGCCCGAGACATCCGCCCAGGCCCGCTTGC
# B38: Table S3 C row 121 (dsDNA)
# DNA 1: CACTCATTCCAGATCAGGAAGTGATCAGTGCCTCAA
# DNA 2: TTGAGGCACTGATCACTTCCTGATCTGGAATGAGTG
# B39: Table S3 C row 178 (dsDNA)
# DNA 1: TGGCTGCTACGTCGTCTTCCTGGGCGAAAGTGCCTG
# DNA 2: CAGGCACTTTCGCCCAGGAAGACGACGTAGCAGCCA
# B40: Table S3 C row 65 (dsDNA)
# DNA 1: TTCACTGAACGGCTTCATCCTGTGCTTTGGGAGGCA
# DNA 2: TGCCTCCCAAAGCACAGGATGAAGCCGTTCAGTGAA
# B41: Table S3 C row 144 (dsDNA)
# DNA 1: GTTTAAGCTCAGCGCCTTCCTGGTTCTAGCGCCAGG
# DNA 2: CCTGGCGCTAGAACCAGGAAGGCGCTGAGCTTAAAC
# B42: Table S3 C row 132 (dsDNA)
# DNA 1: GAGAGACCTGGGCCACTTCCGGGAGAACCCGAGCTT
# DNA 2: AAGCTCGGGTTCTCCCGGAAGTGGCCCAGGTCTCTC
# B43: Table S3 C row 198 (dsDNA)
# DNA 1: GGCAGCAGCCTTCGGCTTCCGCTTTTCGGCTTTCGC
# DNA 2: GCGAAAGCCGAAAAGCGGAAGCCGAAGGCTGCTGCC
# B44: Table S3 B row 1720 (dsDNA)
# DNA 1: GCCTGCGGTGTGGACTCGCATCATGTCCTCTTTCTG
# DNA 2: CAGAAAGAGGACATGATGCGAGTCCACACCGCAGGC
# B45: Table S3 B row 887 (dsDNA)
# DNA 1: CACCCTGCCACCTCCCTAAACTCCCCGCACAGGCCG
# DNA 2: CGGCCTGTGCGGGGAGTTTAGGGAGGTGGCAGGGTG
# Target: RUNX1 (Homo sapiens, UniProt Q01196)
# Sequence (Q01196 whole entry): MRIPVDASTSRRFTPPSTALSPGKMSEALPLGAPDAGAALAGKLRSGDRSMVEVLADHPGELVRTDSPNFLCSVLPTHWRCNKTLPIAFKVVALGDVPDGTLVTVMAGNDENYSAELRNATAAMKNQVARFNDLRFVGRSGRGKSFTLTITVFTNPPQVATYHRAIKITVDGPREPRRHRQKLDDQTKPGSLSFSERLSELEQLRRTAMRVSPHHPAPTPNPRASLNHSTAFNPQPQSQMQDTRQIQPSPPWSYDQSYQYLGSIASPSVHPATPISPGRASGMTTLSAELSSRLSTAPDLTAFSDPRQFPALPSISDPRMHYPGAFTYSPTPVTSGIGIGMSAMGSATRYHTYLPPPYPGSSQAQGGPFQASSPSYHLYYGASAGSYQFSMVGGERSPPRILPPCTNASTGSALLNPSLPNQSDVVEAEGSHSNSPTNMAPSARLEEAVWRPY
# Assay: gcPBM; 2 nM RUNX1
# Settings: tags: N-terminal GST (pDEST15), kept (PMC6008103); label: surface-attached array probe
row,Binder,binding signal
1,B1,"680 PBM fluorescence, median of replicate spots"
2,B2,"726 PBM fluorescence, median of replicate spots"
3,B3,"676 PBM fluorescence, median of replicate spots"
4,B4,"1720 PBM fluorescence, median of replicate spots"
5,B5,"726 PBM fluorescence, median of replicate spots"
6,B6,"724 PBM fluorescence, median of replicate spots"
7,B7,"729 PBM fluorescence, median of replicate spots"
8,B8,"1590 PBM fluorescence, median of replicate spots"
9,B9,"1800 PBM fluorescence, median of replicate spots"
10,B10,"712 PBM fluorescence, median of replicate spots"
11,B11,"1820 PBM fluorescence, median of replicate spots"
12,B12,"697 PBM fluorescence, median of replicate spots"
13,B13,"728 PBM fluorescence, median of replicate spots"
14,B14,"1860 PBM fluorescence, median of replicate spots"
15,B15,"1650 PBM fluorescence, median of replicate spots"
16,B16,"1640 PBM fluorescence, median of replicate spots"
17,B17,"732 PBM fluorescence, median of replicate spots"
18,B18,"673 PBM fluorescence, median of replicate spots"
19,B19,"689 PBM fluorescence, median of replicate spots"
20,B20,"725 PBM fluorescence, median of replicate spots"
21,B21,"659 PBM fluorescence, median of replicate spots"
22,B22,"665 PBM fluorescence, median of replicate spots"
23,B23,"725 PBM fluorescence, median of replicate spots"

row,Binder,binding signal
1,B24,"723 PBM fluorescence, median of replicate spots"
2,B25,"1700 PBM fluorescence, median of replicate spots"
3,B26,"697 PBM fluorescence, median of replicate spots"
4,B27,"723 PBM fluorescence, median of replicate spots"
5,B28,"722 PBM fluorescence, median of replicate spots"
6,B29,"1750 PBM fluorescence, median of replicate spots"
7,B30,"722 PBM fluorescence, median of replicate spots"
8,B31,"688 PBM fluorescence, median of replicate spots"
9,B32,"1740 PBM fluorescence, median of replicate spots"
10,B33,"610 PBM fluorescence, median of replicate spots"
11,B34,"697 PBM fluorescence, median of replicate spots"
12,B35,"714 PBM fluorescence, median of replicate spots"
13,B36,"1790 PBM fluorescence, median of replicate spots"
14,B37,"720 PBM fluorescence, median of replicate spots"
15,B38,"680 PBM fluorescence, median of replicate spots"
16,B39,"726 PBM fluorescence, median of replicate spots"
17,B40,"718 PBM fluorescence, median of replicate spots"
18,B41,"729 PBM fluorescence, median of replicate spots"
19,B42,"721 PBM fluorescence, median of replicate spots"
20,B43,"686 PBM fluorescence, median of replicate spots"
21,B44,"1680 PBM fluorescence, median of replicate spots"
22,B45,"1620 PBM fluorescence, median of replicate spots"
